Measurements as given in paper PMC9758175.

Columns and labels:
[1] = target: WspR-His (Lysobacter enzymogenes OH11); experiment: MST; as the WspR-RpfG MST assay, with 10 μM DSF added
[2] = target: WspR-His (Lysobacter enzymogenes OH11); experiment: MST; as the WspR-RpfG MST assay, with 10 μM c-di-GMP added
[3] = target: WspR-His~P (Lysobacter enzymogenes OH11); experiment: MST; 100 nM WspR-His labelled with RED-Tris-NTA, titrated with MBP-RpfG or its variant; 50 mM Tris pH 7.5, 150 mM NaCl, 10 mM MgCl2, 0.05% Tween 20; 25 °C; Monolith NT.115
[4] = target: WspR-His (Lysobacter enzymogenes OH11); experiment: as above
[5] = target: WspR-His (Lysobacter enzymogenes OH11)

Sequence of WspR-His (Lysobacter enzymogenes OH11) (main, as listed by the source): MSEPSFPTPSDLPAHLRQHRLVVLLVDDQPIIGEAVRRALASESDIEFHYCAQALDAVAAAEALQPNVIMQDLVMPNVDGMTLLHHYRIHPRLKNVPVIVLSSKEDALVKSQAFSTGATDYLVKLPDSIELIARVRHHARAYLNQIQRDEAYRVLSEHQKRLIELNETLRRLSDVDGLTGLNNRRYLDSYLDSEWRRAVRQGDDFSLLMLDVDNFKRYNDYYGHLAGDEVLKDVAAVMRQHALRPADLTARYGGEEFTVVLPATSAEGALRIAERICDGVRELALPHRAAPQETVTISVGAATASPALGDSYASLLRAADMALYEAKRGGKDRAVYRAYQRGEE
Sequence of WspR-His~P (Lysobacter enzymogenes OH11) (main, as listed by the source): as above

Row | Kd [1] [nM] | Kd [2] [nM] | Kd [3] [nM] | Kd [4] [nM] | reduction of c-di-GMP production by WspR-His from GTP (HPLC peak area) on addition of MBP-RpfG [5] [%] | reduction of c-di-GMP production by WspR-His from GTP (HPLC peak area) on addition of MBP-RpfG^H190A [5] [%] | Substance
1 | 250 | 320 | 930 | 150 | 82 |  | MBP-RpfG (enzyme)
2 |  |  | 560 | 200 |  | 34 | MBP-RpfG^H190A (enzyme)
3 |  |  |  | 240 |  |  | phosphorylated RpfG (RpfG~P) (enzyme)
